A word on the Kd: it is the constant that tells how readily two partners part at equilibrium.

This assay deals with H3(1–15)K4 peptide (UniProt P68431). The assay can be described thus: ITC.

With “TRIM24 PHD-Bromo (PHD-linker-Bromo segment, residues 824–1006), wild type (from UniProt O15164 824-1006) (domain or fragment)”, the Kd is 8.6 µM.
